Assay [1] has as its system soybean cyst nematode (SCN). Description: SCN reproduction after application of enzyme or recombinant strain to soil. In kind it is in vivo, Heterodera glycines. The conditions noted are these: Table 34; for % Comparison to Control (figure in parentheses): change vs water control; for % Comparison to Control: first figure, water control = 100%; for Average cysts per g of root tissue: free enzyme 0.5 mL/plant to soil, soybean 2830E3, 3 weeks. How it is done:
To determine the efficacy of nematicidal enzymes applied to soil, a controlled environment trial was performed with 7-day old soybean plants (variety 2830E3) grown in pots. Enzymes were produced as described in Example 2. Prior to inoculation, 0.5 mL of neutral protease (SEQ ID NO: 127), esterase B (SEQ ID NO: 89), or chitinase 19F (SEQ ID NO: 182) free enzyme solution was applied to the soil around the base of each plant, or 0.5 mL of water was applied for the control (30 plants per treatment). Then, hatched SCN juveniles were applied to the soil around each plant as described in Example 2, and three weeks later, cysts per gram of root tissue was determined as described in Example 2. The data was analyzed as in Example 2 and appears in Tables 33 and 34.
To determine the efficacy of recombinant strains applied to soil, a controlled environment trial was performed as described in Example 18 above (Reduction of soybean cyst nematode reproduction by enzymes applied to soil), with the exception that a recombinant strain expressing neutral protease (SEQ ID NO: 127) was applied instead of a free enzyme solution. The recombinant strain was produced as in Example 3, and the treatment applied to soil as a whole cell broth.

Assay [2] concerns soybean cyst nematode (SCN, Heterodera glycines). Put plainly: Soybean cyst nematode reproduction on soybean after seed treatment, controlled environment (cysts per gram of root tissue or per plant). In kind it is in vivo.
The subject of assay [3] is Fall armyworm (Spodoptera frugiperda). Put plainly: Diet-surface overlay (DSO) bioassay on Fall armyworm. The conditions noted are these: for Larva Stage I / Larva Stage II / Larva Stage III / Larva Stage IV / Dead Larva: Fall armyworm. In kind it is in vivo. How it is done:
(§1) Diet-surface overlay bioassays are conducted with artificial diet mixes without antibiotics in 1.5 cm^2 cell bioassay trays(s). Artificial diets are commercially available from Southland Products Inc. Diets were prepared by dispersing 0.5 mL of molten diet to each 1.5 cm^2 cell. After solidification, 0.1 mL enzyme treatments were dispersed on top of diet in each cell and the tray was gently rocked in an orbital shaker to spread the liquid uniformly over the diet surface. Trays were placed under clean airflow until the surface of each cell was uniformly dried. One or two 16-cell sections were used per treatment (the number in larvae treated was 16 or 32).
(§2) One healthy first instar larva was placed into each treatment cell, each 16-cell section was covered with a re-sealable lid and incubated at 27° C. and light-dark period of 16:8 hrs. After 7 days, and according to the species, the number of individuals in the following developmental categories was recorded.
(§3) Negative/untreated controls were treated with filtered water and positive controls were treated with lethal doses of Bacillus thuringiensis subsp. Kurstaki (Btk) spores at 1000 ppm.

Assay [4] concerns SCN juveniles (SCN HG type 1.2.5.7, race 2). Description: In-vitro plate assay of SCN juvenile viability (difference in percent death). In kind it is in vivo. How it is done: (§4) SCN eggs were obtained from SCN HG type 1.2.5.7, race 2. Eggs were rinsed 4 times with sterile water. Eggs were transferred to a 6-well plate and resuspended in 5 mL of 3 mM ZnSO4. The plate was sealed with parafilm, covered with aluminum foil to prevent light from entering the plate, and placed in a plate growth chamber at 25° C. and 80% relative humidity. After 6-7 days of incubation, an estimate of hatched SCN juveniles was obtained from the well to determine the overall number of juveniles per 10 μL. The concentration of the hatchery solution was adjusted until it consisted of 20-30 juveniles per 10 μL.
Potato dextrose agar media containing chloramphenicol and chlortetracycline was prepared and added to sterile twenty-four-well cell culture plates (1 mL per well). The plates were divided according to the pre-determined N-value for each treatment (N=12-24). Each treatment being tested was added to the agar surface within each well at a rate of 40 μL per well. Without allowing the treatments to dry, 10 μL of the prepared nematode mixture was added to the agar surface within each well.
To quantify the treatments' effects on nematode viability, the nematodes were examined under a dissecting microscope at 20× magnification. Initial (TO) values for the number of live juveniles, number of dead juveniles and total number of juveniles were recorded immediately after preparation of each well. The plates were then wrapped in parafilm around the open edge, encased in aluminum foil, and placed in secondary containment. The secondary containment was placed in a plant growth chamber at 25° C. and 80% relative humidity. At approximately 24 hours post addition of juveniles, the plates were evaluated, and the number of live juveniles, dead juveniles and total number of juveniles were recorded (T24).
The difference in percent death at T0 vs T24 was calculated by subtracting the percent dead at TO [(#dead juveniles/total #juveniles)×100] from the percent dead at T24 [(#dead juveniles/#total juveniles originally present)×100]. […] If the ANOVA indicated a significant difference existed among treatments, Tukey's HSD post hoc test was used to perform a pairwise contrast between each set of treatments. Different letters denote statistically significant results at P<0.05.
as §4, with “from” for “from SCN”, “rinsed four” for “rinsed 4”, “and 80-90%” for “and 80%”, “from each” for “from the”
Potato dextrose agar media containing chloramphenicol and chlortetracycline was prepared and added to sterile twenty-four-well cell culture plates (1 mL per well). The plates were divided according to the pre-determined N-value for each treatment (N=24). […]
To quantify the treatments' effects on nematode viability, the nematodes were examined under a dissecting microscope at 20× magnification. Initial (TO) values for the number of live juveniles, number of dead juveniles and total number of juveniles were recorded. […]

The test system of assay [5] is Diamondback moth (Plutella xylostella). Put plainly: Diet-surface overlay (DSO) bioassay on Diamondback moth. In kind it is in vivo. How it is done:
as §1, §2
Diamondback moth (Plutella xylostella): Dead Larva (lack of movement), Larva Stage I (≤50% relative size), Larva Stage II (100% relative size, full size), Early Pupa (light green color), Late Pupa (light-dark brown color), and Adult.
as §3

[6] abbreviates: Table 11, free enzyme seed treatment 2 fl. oz. per unit of seed (ILEVO 0.15 mg active ingredient per seed), soybean P18A98X, 3 weeks after inoculation.
The mark [7] stands for this setting: Table 50, esterases, number of individuals of n = 32.
Where [8] appears, read: Table 49, esterases, Diamondback moth, number of individuals of n = 32.
[9] abbreviates: Table 48, chitinases, number of individuals of n = 32, DSO bioassay.

Two molecules from patent US20260231954A1, “PESTICIDAL ENZYMES FOR USE ON NEMATODES, INSECTS, AND MOLLUSKS” (priority 2023, published 2026) can be followed below.

B1: Esterase B (SEQ ID NO: 89): Bacillus subtilis Esterase (EstB without signal sequence) (protein, listed as Bacillus subtilis)
chain: ESVHNPVVLVHGISGASYNFFAIKNYLISQGWQSNKLYAIDFYDKTGNNLNNGPQLASYVDRVLKETGAKKVDIVAHSMGGANTLYYIKYLGGGNKIQNVVTLGGANGLVSSTALPGTDPNQKILYTSIYSLNDQIVINSLSRLQGARNIQLYGIGHIGLLSNSQVNGYIKEGLNGGGLNTN
modifications: Esterase (EstB H191 without signal sequence)
Turning to B1, in assay [1], the “% Comparison to Control (figure in parentheses)” value is on record as −16%, the “% Comparison to Control” value is given as “reduced SCN reproduction” and the “Average cysts per g of root tissue” value was 117.3 cysts per g of root tissue. Moreover, in assay [1] (listed as Esterase B free enzyme (SEQ ID NO: 89)), the “% Comparison to Control” value was 84%. Further, the “Average cysts per g of root tissue” value in assay [2] (setting [6]) is reported as 19.6 cysts per g of root tissue. Also, in assay [2] (Table 15, seed treated with whole cell broth, soybean P18A98X), the “Average cysts per g of root tissue” value was 56.3 cysts per g of root tissue. For the same molecule, in assay [2] (Table 25, dried formulation 0.04 units of enzyme activity per seed, liquid 2 fl oz per unit of seed, soybean 3230E3), the “Average cysts per g of root tissue” value is listed as 233.2 cysts per g of root tissue. In assay [3] (setting [7]), the “Larva Stage I” value was 3, the “Larva Stage II” value turned out to be 4, the “Larva Stage III” value is 14 and the “Larva Stage IV” value stood at 10. Moreover, the “Dead Larva” value in assay [3] (Table 50, esterases, number of individuals of n = 32, DSO bioassay, dose per treatment in U/mL Diet) amounted to 1. In addition, the “individuals with delayed development” value in assay [3] (text to Table 50, esterases, n = 32) turned out to be 67%. Also, the “Difference in Percent Death of Nematodes for 0 to 24 Hours” value in assay [4] (Table 28, 40 μL of each treatment per well, fertilizer diluted to 3% v/v) turned out to be 3%. Also, the “difference in percent death over twenty-four hours relative to the combination treatment” value in assay [4] (single treatment vs Esterase B + 10-34-0 fertilizer combination) is recorded as −7%. In assay [5] (setting [8]), the Adult was 0, the “Early Pupa” value came out at 4, the “Larva Stage I” value turned out to be 3 and the “Larva Stage II” value was 8. Further, in assay [5] (setting [8]), the “Late Pupa” value is given as 17. Moreover, the “Dead Larva” value in assay [5] (Table 49, esterases, Diamondback moth, number of individuals of n = 32, DSO bioassay, dose per treatment in U/mL Diet) is given as 0. Moreover, the “individuals with delayed larva-pupa development” value in assay [5] (text to Table 49, esterases, n = 32) was found to be 47%. For the same molecule, in assay [5] (text to Table 49: 34% of which were at larva stage), the “individuals at larva stage” value worked out at 34%.

B2: Chitinase 19F (SEQ ID NO: 182): Streptomyces coelicolor Chitinase F (Chi19F) (protein)
chain: ASCSSYHAWSADANYNTGDIVRYTDGKAYIAEHANPGYDPLISTWYWDPYACDGGSQTPVGNFVVSEAQFNQMFPGRNSFYTYSGLTAALSAYPGFANTGSDTTKKQEAAAFLANVSHETGGLVYIVEQNTANYPHYCDWNQPYGCPAGQAAYYGRGPIQLSWNFNYKAAGDALGIDLLGNPWLVQNDAAVAWKTGLWYWNTQSGPGTMTPHNAMVNGAGFGQTIRSINGSLECDGKNPAQVQSRVTKYQQFAQILGVSPGGNLYC
modifications: Chitinase F (Chi19F); Streptomyces coelicolor
Turning to B2, in assay [1], the “% Comparison to Control (figure in parentheses)” value is given as −32%, the “% Comparison to Control” value is listed as “reduced SCN reproduction” and the “Average cysts per g of root tissue” value is listed as 95.6 cysts per g of root tissue. In assay [1] (listed as Chitinase 19F free enzyme (SEQ ID NO: 182)), the “% Comparison to Control” value was 68%. The “Average cysts per g of root tissue” value in assay [2] (setting [6]) was 48.8 cysts per g of root tissue. For the same molecule, the “Average cysts per g of root tissue” value in assay [2] (Table 12, free enzyme seed treatment 2 fl. oz. per unit of seed (ILEVO 0.15 mg active ingredient per seed), soybean P18A98X) is on record as 296.9 cysts per g of root tissue. Also, in assay [3] (setting [9]), the “Larva Stage I” value is reported as 4, the “Larva Stage II” value was determined as 14, the “Larva Stage III” value is reported as 5 and the “Larva Stage IV” value amounted to 6. The “Dead Larva” value in assay [3] (Table 48, chitinases, number of individuals of n = 32, DSO bioassay, dose per treatment in mU/mL Diet) came to 3. Moreover, the “Difference in Percent Death of Nematodes for 0 to 24 Hours” value in assay [4] (Table 32, 40 μL per well of each treatment, water only 4%) was 24%.
